Consider 2 molecules from paper PMC10652518, “Enzyme kinetics of deoxyuridine triphosphatase from Western corn rootworm” (BMC Research Notes, 2023).

The subject of data set [1] is T1, O=c1ccn([C@H]2C[C@H](O)[C@@H](COP(=O)(O)OP(=O)(O)OP(=O)(O)O)O2)c(=O)[nH]1.
T1 construct: starts at residue 25; R89K to prevent secondary thrombin cleavage; N-terminal 6-His tag cut by thrombin; codon-optimized synthetic gene in pET-15, E. coli; trimer (48 kDa by SEC)
As to the kind of experiment: cresol red proton-release assay, stopped-flow spectrophotometer, integrated Michaelis-Menten fit. The format is biochemical, Diabrotica virgifera. The note with it: 50 nM enzyme, 1 mM dUTP; activity prevented by EDTA. An excerpt: cresol red proton-release assay, stopped-flow spectrophotometer, integrated Michaelis-Menten fit on WCR dUTPase

Data set [2] concerns the molecule itself. As to the kind of experiment: SEC; Superdex matrix, molecular weight calibrated with the BioRad SEC standard; tag-free dUTPase, estimated 48 kDa against 15.6 kDa on SDS-PAGE.

By Km is commonly meant the concentration of substrate that gives half-maximal velocity. The term kcat denotes the number of substrate molecules converted per active site and unit of time at saturation. One may read the kcat/Km as the second-order rate constant that governs catalysis at low substrate concentration. Consider “WCR dUTPase (Diabrotica virgifera virgifera; R89K)”, for which, in data set [1], the Michaelis-Menten constant (Km) is 0.7 ± 0.1 µM, the kcat amounted to 30 ± 0.5 s⁻¹ and the kcat/Km was 4e+07 M⁻¹ s⁻¹.

B1: Western corn rootworm (Diabrotica virgifera virgifera) deoxyuridine 5'-triphosphate nucleotidohydrolase (dUTPase), construct from residue 25 with Arg89Lys, … (enzyme, UniProt A0A6P7FUX9 25-168, looked up)
chain: GANILLKYTKVIEEAYPPTKGSVKAAGYDLKSAHDVVVPARGKALVDTGLKIELPEGCYGRIAPKSGLAVKNFIDVGAGVVDEDYRGLLKVVLFNHSDNDFEVKSGDRIAQLICERIFYPELEEVKELTDTARGEGGFGSTGTQ
notes: dUTPase of Diabrotica virgifera virgifera LeConte (protein XP_028136545; UniProt ID A0A6P7FUX9_DIAVI); the construct starts at the 25th residue of the WCR dUTPase; Arg89 changed to Lys to prevent secondary thrombin cleavage; Cloned into pET-15 by NcoI and XhoI; also called WCR dUTPase; product of WCR DUT; source: E. coli, purified (Ni-NTA, HiTrap Q; His-tag removed with human alpha-thrombin, …)
The stoichiometry N is the number of molecules, sites or subunits per partner or assembly. On to B1, for which the “stoichiometry N” value in data set [2] was 3.
